From patent US6525022B1, “Receptor specific atrial natriuretic peptides” (Genentech, Inc., priority 1993, dated 2003) come the findings set out here.

Bridges are numbered along the chain shown (N, C = ends). Where no end group is shown, it is not given here.

In test [1] the target is T1, human neutral endopeptidase 24.11 (human), P08473.
T1 chain: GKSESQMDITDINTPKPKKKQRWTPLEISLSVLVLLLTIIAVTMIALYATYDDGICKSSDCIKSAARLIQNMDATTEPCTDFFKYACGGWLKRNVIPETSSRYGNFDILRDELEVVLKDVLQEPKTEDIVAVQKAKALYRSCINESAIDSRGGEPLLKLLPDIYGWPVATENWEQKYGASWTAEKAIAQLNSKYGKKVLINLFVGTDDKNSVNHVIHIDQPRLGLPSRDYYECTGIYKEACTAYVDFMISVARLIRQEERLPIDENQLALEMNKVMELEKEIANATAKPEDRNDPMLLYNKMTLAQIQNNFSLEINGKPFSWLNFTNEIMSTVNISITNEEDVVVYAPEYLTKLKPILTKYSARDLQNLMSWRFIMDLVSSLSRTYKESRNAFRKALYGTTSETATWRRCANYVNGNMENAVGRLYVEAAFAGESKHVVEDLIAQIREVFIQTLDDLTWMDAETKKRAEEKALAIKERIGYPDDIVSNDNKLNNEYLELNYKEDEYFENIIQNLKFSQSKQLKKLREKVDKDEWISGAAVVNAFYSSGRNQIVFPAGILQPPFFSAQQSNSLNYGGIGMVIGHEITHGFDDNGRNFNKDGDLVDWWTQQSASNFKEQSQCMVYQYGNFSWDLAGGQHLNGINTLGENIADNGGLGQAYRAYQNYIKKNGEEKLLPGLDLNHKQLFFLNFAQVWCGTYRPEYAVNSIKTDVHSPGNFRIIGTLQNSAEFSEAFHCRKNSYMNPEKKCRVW
Description: cell-based or functional assay.

For test [2], the target named is T2, human natriuretic peptide receptor-A (human), P16066.
T2 chain: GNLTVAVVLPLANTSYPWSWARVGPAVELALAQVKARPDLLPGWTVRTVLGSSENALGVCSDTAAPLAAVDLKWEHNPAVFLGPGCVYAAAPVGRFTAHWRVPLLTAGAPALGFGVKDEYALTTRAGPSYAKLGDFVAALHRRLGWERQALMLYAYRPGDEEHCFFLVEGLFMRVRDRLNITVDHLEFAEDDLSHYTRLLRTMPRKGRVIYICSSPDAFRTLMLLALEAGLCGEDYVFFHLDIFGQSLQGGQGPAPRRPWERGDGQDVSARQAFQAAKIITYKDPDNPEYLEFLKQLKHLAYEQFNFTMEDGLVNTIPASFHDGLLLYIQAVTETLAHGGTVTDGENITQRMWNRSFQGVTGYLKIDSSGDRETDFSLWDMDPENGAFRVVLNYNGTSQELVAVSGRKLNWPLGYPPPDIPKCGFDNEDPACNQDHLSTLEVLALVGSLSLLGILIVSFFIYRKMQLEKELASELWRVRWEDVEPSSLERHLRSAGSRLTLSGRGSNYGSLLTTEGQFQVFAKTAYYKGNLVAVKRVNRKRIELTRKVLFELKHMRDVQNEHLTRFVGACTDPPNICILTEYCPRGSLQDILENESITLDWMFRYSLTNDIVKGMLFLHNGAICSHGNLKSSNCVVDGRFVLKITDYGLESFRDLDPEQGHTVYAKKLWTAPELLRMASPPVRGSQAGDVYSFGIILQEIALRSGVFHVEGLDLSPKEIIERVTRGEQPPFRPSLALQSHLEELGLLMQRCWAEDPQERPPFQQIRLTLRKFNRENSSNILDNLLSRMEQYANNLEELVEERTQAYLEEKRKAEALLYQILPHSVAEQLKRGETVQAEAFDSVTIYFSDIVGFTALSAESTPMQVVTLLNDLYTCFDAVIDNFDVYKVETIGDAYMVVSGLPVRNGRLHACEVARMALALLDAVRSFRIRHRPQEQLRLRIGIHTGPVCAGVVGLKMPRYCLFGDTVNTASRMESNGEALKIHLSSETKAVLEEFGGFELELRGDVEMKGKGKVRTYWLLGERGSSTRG
Put plainly: competition binding, Table I; tracer and receptor format not given.

Test [3] addresses T3, human natriuretic peptide receptor-A (human, UniProt P16066 33-1061).
T3 construct: whole, on cells; also called hNPR-A; human NPR-A
T3 sequence (looked up): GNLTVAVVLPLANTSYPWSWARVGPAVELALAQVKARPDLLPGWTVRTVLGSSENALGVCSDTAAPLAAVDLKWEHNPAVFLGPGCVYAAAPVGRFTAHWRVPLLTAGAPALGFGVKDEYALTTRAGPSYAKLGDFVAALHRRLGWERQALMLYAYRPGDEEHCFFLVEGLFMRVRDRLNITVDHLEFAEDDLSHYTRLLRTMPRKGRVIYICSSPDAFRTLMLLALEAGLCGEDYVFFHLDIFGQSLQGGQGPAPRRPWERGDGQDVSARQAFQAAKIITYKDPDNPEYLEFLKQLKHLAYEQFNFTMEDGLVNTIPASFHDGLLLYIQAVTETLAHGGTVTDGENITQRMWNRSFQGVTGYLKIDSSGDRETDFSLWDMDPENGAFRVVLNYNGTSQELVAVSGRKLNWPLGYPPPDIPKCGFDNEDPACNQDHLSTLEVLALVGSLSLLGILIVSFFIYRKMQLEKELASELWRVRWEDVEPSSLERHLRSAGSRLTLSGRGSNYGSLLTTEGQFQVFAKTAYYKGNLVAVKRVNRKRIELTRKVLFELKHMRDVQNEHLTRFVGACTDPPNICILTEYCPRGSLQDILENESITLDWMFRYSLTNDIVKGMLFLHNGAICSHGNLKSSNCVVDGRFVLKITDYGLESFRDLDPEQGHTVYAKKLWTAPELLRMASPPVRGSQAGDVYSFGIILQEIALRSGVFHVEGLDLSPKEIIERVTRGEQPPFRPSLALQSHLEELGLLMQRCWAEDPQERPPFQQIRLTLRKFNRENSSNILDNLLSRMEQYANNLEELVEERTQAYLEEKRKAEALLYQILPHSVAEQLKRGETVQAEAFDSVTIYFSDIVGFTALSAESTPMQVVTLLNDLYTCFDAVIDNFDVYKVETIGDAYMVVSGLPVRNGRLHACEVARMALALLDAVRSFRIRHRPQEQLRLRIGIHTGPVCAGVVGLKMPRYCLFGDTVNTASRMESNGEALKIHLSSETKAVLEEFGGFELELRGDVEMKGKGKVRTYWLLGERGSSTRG
The description is as above.

Test [4] addresses T4, human natriuretic peptide clearance receptor-C (human, UniProt P17342 27-541).
T4 construct: whole, on cells; also called hNPR-C; human NPR-C
T4 sequence (looked up): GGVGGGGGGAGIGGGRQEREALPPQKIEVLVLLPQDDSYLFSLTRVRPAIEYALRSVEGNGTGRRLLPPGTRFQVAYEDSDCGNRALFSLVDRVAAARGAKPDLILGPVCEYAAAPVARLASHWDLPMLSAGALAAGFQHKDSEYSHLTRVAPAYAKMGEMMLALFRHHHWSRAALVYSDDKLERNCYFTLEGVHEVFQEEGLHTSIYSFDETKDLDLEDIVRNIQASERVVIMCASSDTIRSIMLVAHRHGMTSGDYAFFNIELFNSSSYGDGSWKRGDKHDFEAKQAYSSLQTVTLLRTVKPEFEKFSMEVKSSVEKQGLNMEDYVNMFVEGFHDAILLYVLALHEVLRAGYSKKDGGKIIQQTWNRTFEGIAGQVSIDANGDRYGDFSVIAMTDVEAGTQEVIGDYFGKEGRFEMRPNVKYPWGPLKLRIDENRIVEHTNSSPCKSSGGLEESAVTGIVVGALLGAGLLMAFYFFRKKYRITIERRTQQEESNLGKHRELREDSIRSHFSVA
The description is as above.

Test [5] deals with human neutral endopeptidase 24.11 (human, UniProt P08473 2-750, limits assumed). Description: cell-based or functional assay.
Test [6] has as its target T5, human natriuretic peptide clearance receptor-C (human), P17342.
T5 chain: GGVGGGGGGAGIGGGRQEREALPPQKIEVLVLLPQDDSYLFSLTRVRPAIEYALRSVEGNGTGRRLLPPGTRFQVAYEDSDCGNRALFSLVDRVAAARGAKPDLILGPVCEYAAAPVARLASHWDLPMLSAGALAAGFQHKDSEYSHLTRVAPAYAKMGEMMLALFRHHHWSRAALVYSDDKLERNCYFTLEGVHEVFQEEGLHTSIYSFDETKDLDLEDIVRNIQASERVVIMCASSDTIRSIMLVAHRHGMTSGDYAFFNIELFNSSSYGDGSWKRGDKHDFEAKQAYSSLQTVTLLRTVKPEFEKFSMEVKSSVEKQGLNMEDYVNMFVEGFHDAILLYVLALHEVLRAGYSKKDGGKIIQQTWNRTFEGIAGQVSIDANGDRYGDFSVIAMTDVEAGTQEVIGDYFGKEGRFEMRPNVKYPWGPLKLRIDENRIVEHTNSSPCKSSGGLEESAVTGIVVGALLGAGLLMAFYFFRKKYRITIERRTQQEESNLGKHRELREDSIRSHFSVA
Description: competition binding, Table I; tracer and receptor format not given.

The IC50 is the midpoint of a concentration-inhibition curve. Higher therefore signals lower potency. TAPRSLRRSSCFTGSIDRIRAQSGLGCNSFRY (modifications not checked) [ANF 76] had a Half-Life in test [1] of 23.5 h. The molecule also gave an IC50 in test [2] of 0.0089 nM.

B1: ANF 51 (peptide)
peptide: SLRRSSCFERPMDRIGAQSGLGCNSFRY
modifications: disulfide 7-23
notes: Cys7-Cys23 disulfide; also called hANF(1-28) G9E, G10R, R11P
As to B1, the IC50 in test [3] worked out at 4.55 nM; in test [4] it was 32.2 nM. The “Half-life at 0.075 µg/ml NEP” value in test [5] was 32.1 h. For the same molecule, the “Half-life at 0.15 µg/ml NEP” value in test [5] was determined as 4.48 h.

In test [1], SLRRSSCFGKSMDRIGAQSGLGCNSFRY (modifications not checked) [ANF 60] came in with a Half-Life of 5.07 h. The IC50 in test [6] came to 5.98 nM; in test [2], 0.112 nM.
